B1: ZNF263 (parent)
chain: HLTRHQRTHTGEKPYKCTLCGENF
B2: BTBD1 (parent)
chain: IVGFGLYGSIHGPTDYQVNIQIIE
B3: HSP90AB1 (parent)
chain: TLRQKAEADKNDKAVKDLVVLLFE

Variants of: B1
Test: protein stability index of a GFP-peptide fusion (GPS, HEK-293T) (PSI 1-6); higher = more stable
Details: c terminus: a fixed tail appended
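Note: lentivirally expressed fusions sorted by FACS into six bins by GFP to DsRed ratio, PSI derived from sequencing read proportions per bin multiplied by bin number.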

Protein stability index of substitutions, site by site:
Y15: W 2.46
E22: A 2.54
E12: C 2.41
L2: Q 3.22
Q6: M 2.6
K13: I 2.13
R4: F 2.38
H5: W 2.31
T18: Q 2.68
C20: I 2.57; N 3.25
G11: I 2.46; N 2.98; S 3.45
T3: Y 2.36
T10: L 1.98; D 2.78
H9: T 3.04
N23: I 2.57; T 2.83
L19: Q 2.98; V 2.86

Variants of: B2
Test: as above
Details: c terminus: a fixed tail appended

Protein stability index, by site and new letter:
P13: I 4.51; F 2.72; R 2.35; V 2.33; G 1.57; Q 3.17; W 2.76; T 2.81; D 1.76; M 2.48; C 2.51; A 2.3; Y 2.98; L 2.25
Y16: M 2.38; T 4.3; L 2.09; G 4.04; C 3.51; N 2.41; I 3.59; H 1.6; A 2.1; W 3.98; E 2.15; K 3.23; Q 1.69; D 2.5
V18: L 3.15; D 2.32; K 2.42; Q 2.38; E 2.36; T 4; R 2.39; N 1.8; H 1.58; F 2.14; I 2.72
I20: A 2.29; L 3.4; V 2.83; R 2.12; P 2.21; T 2.13; N 1.24; S 1.93; Q 2.58; H 2.21; D 2.31; K 1.16; E 1.46; M 4.04; C 2.49
I10: P 2.78; T 3.32; K 1.76; V 2.09; W 1.64; E 2.58; F 3.05; C 3.14; Q 3.45; M 1.95; G 5.97; D 2.74
Q21: F 1.77; L 2.66; R 2.53; Y 3.06; A 3.82; D 3.52; W 1.5; I 2.01; E 2.68; C 2.19; G 2.44; P 2.37; T 2.1
G8: Y 2.35; L 2.81; D 2.86; P 4.75; K 2.89; I 2.28; F 2.78; R 1.45; M 2.04; H 2.61; N 2.5; Q 3.42; T 2.37
Q17: S 2.31; N 2.98; Y 2.44; V 2.48; T 2.53; R 3.14; K 2.3; D 2.09; E 2.95; F 2.95; A 3.68; G 4.09; C 2.49; P 1.98
N19: P 3.38; R 2.13; I 3.1; M 4.59; G 1.59; W 1.76; H 1.59; T 3.11; V 4.07; Q 2.56
Y7: W 3.5; M 2.82; C 2.57; P 3.54; V 2.16; G 2.06; H 3.81; F 1.86; R 4.6; E 3.6; K 3.4; N 2.96; S 2.47
G12: Q 3.29; D 3.52; Y 1.89; W 2.56; M 2.27; K 4.19; S 3.04; I 1.72; L 3.53; E 3.19
S9: E 2.74; W 2.76; R 2.67; N 3.18; I 2.88; Y 2.58; F 2.95; H 1.88; V 3.54; T 1.99; L 3.19; Q 2.56; A 1.82
I23: H 4.05; P 2.21; Y 2.12; C 2.05; N 3.56; L 2.96; W 1.57; S 2.29; K 2.13; M 3.68; E 2.23; V 2.82; R 2.12
I1: F 3.14; G 3.43; S 1.77; C 2.91; N 2.16; E 3.29; Q 3.04; P 1.82; T 1.82; R 1.65; D 2.03; K 2.14; V 3.69; H 2.38
D15: Y 3.42; E 3.19; A 2.57; N 2.36; L 3.05; M 2.99; G 2.52; C 2.97; S 3.04; P 2.37; V 2.67; I 3.86
G3: K 3.18; E 2.82; R 4.02; A 3.04; W 4.95; F 3.55; D 3.42; P 2.64; S 1.66; V 3.82; N 3.38
E24: K 2.36; F 1.72; P 2.89; S 2.78; A 2.41; W 3.21; I 2.08; H 2.33; V 2.95; T 3.78; Q 2.62; L 4.16; Y 2.02
F4: I 3.05; D 2.64; C 2.29; R 2.25; Q 1.9; W 1.8; P 1.87; K 2.39; S 2.07; G 1.56; T 2.1; H 2.54; A 1.97; L 3.57; M 2.47
V2: Q 4.24; G 2.59; M 2.49; D 2.79; I 2.6; P 1.76; R 2.96; Y 2.16; C 3.88; A 2.81; K 2.02; W 3.31
G5: Y 3.17; A 4.32; P 2.36; H 2.33; Q 3.76; C 2.63; T 2.89; M 2.92; D 2.4; R 2.57; K 2.34; S 1.62; W 2.79; N 3.75
I22: A 2.07; H 2.4; Q 3; Y 2.48; K 2.4; N 1.24; D 1.3; E 2; W 3.36; L 2.65; F 2.84; V 3.25; P 3.17; G 1.91; C 4.32; S 2.09
T14: H 2.71; Q 3.12; V 2.82; M 3.23; N 2.95; S 3.24; D 2.94; R 4.46; C 2.51; I 2.73; P 3.3; W 2.9; Y 3.03
L6: H 3.36; V 3.11; W 1.76; G 4.42; I 2.75; Q 3.25; F 4.24; R 2.67; P 3.27; A 3.31; E 2.02; M 1.94; T 2.16; N 2.56; D 2.33; Y 3.48
H11: C 2.58; V 3.12; P 2.57; K 1.55; N 3.26; D 1.97

Variants of: B3
Test: as above
Details: c terminus: a fixed tail appended

Protein stability index of substitutions, site by site:
E24: Y 2.21; S 2.19; T 2.14; V 2.01; W 1.97

Source: the supplement of paper PMC10567573
